Assay results from paper PMC12723728.

Substrate: C[S+](CC[C@H](N)C(=O)O)C[C@H]1O[C@@H](n2cnc3c(N)ncnc32)[C@H](O)[C@@H]1O
Assay: purified protein
Details: co-substrate mGpppAmC RNA 1 μM; 100 nM enzyme; SAM 0.5-6 μM; labelled compound

B1: CMTR2 (Homo sapiens) (protein)
chain: MSKCRKTPVQQLASPASFSPDILADIFELFAKNFSYGKPLNNEWQLPDPSEIFTCDHTELNAFLDLKNSLNEVKNLLSDKKLDEWHEHTAFTNKAGKIISHVRKSVNAELCTQAWCKFHEILCSFPLIPQEAFQNGKLNSLHLCEAPGAFIASLNHYLKSHRFPCHWSWVANTLNPYHEANDDLMMIMDDRLIANTLHWWYFGPDNTGDIMTLKFLTGLQNFISSMATVHLVTADGSFDCQGNPGEQEALVSSLHYCEVVTALTTLGNGGSFVLKMFTMFEHCSINLMYLLNCCFDQVHVFKPATSKAGNSEVYVVCLHYKGREAIHPLLSKMTLNFGTEMKRKALFPHHVIPDSFLKRHEECCVFFHKYQLETISENIRLFECMGKAEQEKLNNLRDCAIQYFMQKFQLKHLSRNNWLVKKSSIGCSTNTKWFGQRNKYFKTYNERKMLEALSWKDKVAKGYFNSWAEEHGVYHPGQSSILEGTASNLECHLWHILEGKKLPKVKCSPFCNGEILKTLNEAIEKSLGGAFNLDSKFRPKQQYSCSCHVFSEELIFSELCSLTECLQDEQVVVPSNQIKCLLVGFSTLRNIKMHIPLEVRLLESAELTTFSCSLLHDGDPTYQRLFLDCLLHSLRELHTGDVMILPVLSCFTRFMAGLIFVLHSCFRFITFVCPTSSDPLRTCAVLLCVGYQDLPNPVFRYLQSVNELLSTLLNSDSPQQVLQFVPMEVLLKGALLDFLWDLNAAIAKRHLHFIIQREREEIINSLQLQN
With B1 the K0.5 was 1.3 ± 0.1 µM and the kcat was 3.4 ± 0.4 h⁻¹.
